Test system: Escherichia coli TOP10
Experiment: shrunken log2 fold change of peptide-encoding DNA abundance (4.5 h post-induction vs induction); higher = less antimicrobial activity (less host growth inhibition)
Conditions: time post-induction: 4.5 h; library: site-saturation at positions 5, 18, 19, 20
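Also: peptides expressed intracellularly from a pBAD plasmid library in pooled LB shake-flask culture, induced with 0.3% L-arabinose, DNA abundance read by NGS, three biological replicates, DESeq2 with apeglm shrinkage.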

| Sequence | shrunken log2 fold change |
| --- | --- |
| RRIRYRPPRLPRPRPRPLFHPRP | -0.818 |
| RRIRYRPPRLPRPRPRPLGMPRP | -0.807 |
| RRIRYRPPRLPRPRPRPLGRPRP | -0.191 |
| RRIRYRPPRLPRPRPRPLGSPRP | -0.651 |
| RRIRYRPPRLPRPRPRPLHCPRP | -0.724 |
| RRIRYRPPRLPRPRPRPLIVPRP | -0.895 |
| RRIRYRPPRLPRPRPRPLKNPRP | -0.337 |
| RRIRYRPPRLPRPRPRPLKSPRP | -0.365 |
| RRIRYRPPRLPRPRPRPLLKPRP | -0.634 |
| RRIRYRPPRLPRPRPRPLLNPRP | -0.19 |
| RRIRYRPPRLPRPRPRPLLSPRP | -0.186 |
| RRIRYRPPRLPRPRPRPLLWPRP | -0.246 |
| RRIRYRPPRLPRPRPRPLMMPRP | -0.692 |
| RRIRYRPPRLPRPRPRPLPWPRP | -0.132 |
| RRIRYRPPRLPRPRPRPLPYPRP | -0.156 |
| RRIRYRPPRLPRPRPRPLRGPRP | 0.561 |
| RRIRYRPPRLPRPRPRPLRRPRP | 0.17 |
| RRIRYRPPRLPRPRPRPLSIPRP | -0.129 |
| RRIRYRPPRLPRPRPRPLSSPRP | -0.214 |
| RRIRYRPPRLPRPRPRPLTLPRP | -0.267 |
| RRIRYRPPRLPRPRPRPLVKPRP | -1.45 |
| RRIRYRPPRLPRPRPRPLVLPRP | -0.206 |
| RRIRYRPPRLPRPRPRPLVMPRP | -0.372 |
| RRIRYRPPRLPRPRPRPLWMPRP | -0.63 |
| RRIRYRPPRLPRPRPRPLYHPRP | -1.11 |

| Sequence | shrunken log2 fold change |
| --- | --- |
| RRIRYRPPRLPRPRPRPLYIPRP | -0.999 |
| RRIRYRPPRLPRPRPRPLYNPRP | -1.11 |
| RRIRYRPPRLPRPRPRPLYTPRP | -0.795 |
| RRIRYRPPRLPRPRPRPMCCPRP | -3.16 |
| RRIRYRPPRLPRPRPRPMDMPRP | -0.00926 |
| RRIRYRPPRLPRPRPRPMDYPRP | -0.218 |
| RRIRYRPPRLPRPRPRPMGSPRP | -0.106 |
| RRIRYRPPRLPRPRPRPMHHPRP | -0.596 |
| RRIRYRPPRLPRPRPRPMKFPRP | -0.0276 |
| RRIRYRPPRLPRPRPRPMNKPRP | -0.187 |
| RRIRYRPPRLPRPRPRPMNWPRP | -0.463 |
| RRIRYRPPRLPRPRPRPMPSPRP | 0.0101 |
| RRIRYRPPRLPRPRPRPMQHPRP | -0.17 |
| RRIRYRPPRLPRPRPRPMRGPRP | 0.156 |
| RRIRYRPPRLPRPRPRPMRMPRP | 0.126 |
| RRIRYRPPRLPRPRPRPMSLPRP | 0.0155 |
| RRIRYRPPRLPRPRPRPMSNPRP | -0.709 |
| RRIRYRPPRLPRPRPRPMTPPRP | -0.0195 |
| RRIRYRPPRLPRPRPRPMTQPRP | -0.0104 |
| RRIRYRPPRLPRPRPRPMWMPRP | -0.00149 |
| RRIRYRPPRLPRPRPRPMYFPRP | -0.48 |
| RRIRYRPPRLPRPRPRPMYMPRP | -2.38 |
| RRIRYRPPRLPRPRPRPMYYPRP | -0.269 |
| RRIRYRPPRLPRPRPRPNAKPRP | -0.0394 |
| RRIRYRPPRLPRPRPRPNESPRP | 0.0169 |

| Sequence | shrunken log2 fold change |
| --- | --- |
| RRIRYRPPRLPRPRPRPNFNPRP | -0.818 |
| RRIRYRPPRLPRPRPRPNGAPRP | -0.0032 |
| RRIRYRPPRLPRPRPRPNGYPRP | 0.122 |
| RRIRYRPPRLPRPRPRPNHNPRP | -1.23 |
| RRIRYRPPRLPRPRPRPNIAPRP | -0.64 |
| RRIRYRPPRLPRPRPRPNIDPRP | -1.61 |
| RRIRYRPPRLPRPRPRPNIGPRP | -0.105 |
| RRIRYRPPRLPRPRPRPNIRPRP | 0.0146 |
| RRIRYRPPRLPRPRPRPNKMPRP | -1.19 |
| RRIRYRPPRLPRPRPRPNLSPRP | -0.0996 |
| RRIRYRPPRLPRPRPRPNPGPRP | -0.000104 |
| RRIRYRPPRLPRPRPRPNVQPRP | -0.0298 |
| RRIRYRPPRLPRPRPRPNVRPRP | -0.0227 |
| RRIRYRPPRLPRPRPRPNWFPRP | -0.892 |
| RRIRYRPPRLPRPRPRPNWHPRP | -0.575 |
| RRIRYRPPRLPRPRPRPNWWPRP | -0.00469 |
| RRIRYRPPRLPRPRPRPPANPRP | 0.169 |
| RRIRYRPPRLPRPRPRPPAQPRP | 0.23 |
| RRIRYRPPRLPRPRPRPPCAPRP | 2.51 |
| RRIRYRPPRLPRPRPRPPCDPRP | -0.196 |
| RRIRYRPPRLPRPRPRPPCFPRP | -0.242 |
| RRIRYRPPRLPRPRPRPPDMPRP | -0.625 |
| RRIRYRPPRLPRPRPRPPEKPRP | 0.274 |
| RRIRYRPPRLPRPRPRPPEWPRP | 0.0503 |
| RRIRYRPPRLPRPRPRPPFYPRP | -0.789 |

| Sequence | shrunken log2 fold change |
| --- | --- |
| RRIRYRPPRLPRPRPRPPGMPRP | 0.0171 |
| RRIRYRPPRLPRPRPRPPHGPRP | -0.0619 |
| RRIRYRPPRLPRPRPRPPHMPRP | -0.656 |
| RRIRYRPPRLPRPRPRPPHYPRP | -0.686 |
| RRIRYRPPRLPRPRPRPPIRPRP | -0.121 |
| RRIRYRPPRLPRPRPRPPIWPRP | -0.0337 |
| RRIRYRPPRLPRPRPRPPNCPRP | -0.236 |
| RRIRYRPPRLPRPRPRPPNGPRP | 3.11 |
| RRIRYRPPRLPRPRPRPPPAPRP | 0.878 |
| RRIRYRPPRLPRPRPRPPPEPRP | 0.456 |
| RRIRYRPPRLPRPRPRPPRCPRP | -0.0545 |
| RRIRYRPPRLPRPRPRPPSAPRP | 0.388 |
| RRIRYRPPRLPRPRPRPPTAPRP | -0.111 |
| RRIRYRPPRLPRPRPRPPTEPRP | 0.183 |
| RRIRYRPPRLPRPRPRPPTNPRP | 0.0849 |
| RRIRYRPPRLPRPRPRPPVGPRP | 0.0196 |
| RRIRYRPPRLPRPRPRPPWAPRP | 0.449 |
| RRIRYRPPRLPRPRPRPPWVPRP | -0.209 |
| RRIRYRPPRLPRPRPRPPYMPRP | -0.43 |
| RRIRYRPPRLPRPRPRPQAEPRP | -0.0183 |
| RRIRYRPPRLPRPRPRPQAQPRP | 0.0442 |
| RRIRYRPPRLPRPRPRPQARPRP | -0.0547 |
| RRIRYRPPRLPRPRPRPQCFPRP | -0.00674 |
| RRIRYRPPRLPRPRPRPQCHPRP | -0.198 |
| RRIRYRPPRLPRPRPRPQCIPRP | -0.0693 |

| Sequence | shrunken log2 fold change |
| --- | --- |
| RRIRYRPPRLPRPRPRPQDQPRP | -0.21 |
| RRIRYRPPRLPRPRPRPQEWPRP | -0.000687 |
| RRIRYRPPRLPRPRPRPQFFPRP | -0.0644 |
| RRIRYRPPRLPRPRPRPQGQPRP | -0.262 |
| RRIRYRPPRLPRPRPRPQHEPRP | 0.0438 |
| RRIRYRPPRLPRPRPRPQIGPRP | 0.00262 |
| RRIRYRPPRLPRPRPRPQILPRP | -0.0395 |
| RRIRYRPPRLPRPRPRPQKNPRP | -0.555 |
| RRIRYRPPRLPRPRPRPQKYPRP | -0.969 |
| RRIRYRPPRLPRPRPRPQMFPRP | -0.0885 |
| RRIRYRPPRLPRPRPRPQNLPRP | -0.0535 |
| RRIRYRPPRLPRPRPRPQQAPRP | -0.0122 |
| RRIRYRPPRLPRPRPRPQRCPRP | -0.0766 |
| RRIRYRPPRLPRPRPRPQRGPRP | -0.123 |
| RRIRYRPPRLPRPRPRPQRYPRP | -0.771 |
| RRIRYRPPRLPRPRPRPQVHPRP | -0.0163 |
| RRIRYRPPRLPRPRPRPQVKPRP | -0.318 |
| RRIRYRPPRLPRPRPRPQVNPRP | -0.0568 |
| RRIRYRPPRLPRPRPRPQWVPRP | -0.0081 |
| RRIRYRPPRLPRPRPRPQWYPRP | -0.118 |
| RRIRYRPPRLPRPRPRPQYEPRP | -0.565 |
| RRIRYRPPRLPRPRPRPQYNPRP | -1.49 |
| RRIRYRPPRLPRPRPRPQYQPRP | -0.103 |
| RRIRYRPPRLPRPRPRPRCCPRP | -0.233 |
| RRIRYRPPRLPRPRPRPRCHPRP | -0.512 |

| Sequence | shrunken log2 fold change |
| --- | --- |
| RRIRYRPPRLPRPRPRPRCQPRP | -0.259 |
| RRIRYRPPRLPRPRPRPRDYPRP | -1.39 |
| RRIRYRPPRLPRPRPRPREDPRP | -0.126 |
| RRIRYRPPRLPRPRPRPREEPRP | 0.0202 |
| RRIRYRPPRLPRPRPRPREKPRP | 0.124 |
| RRIRYRPPRLPRPRPRPREPPRP | 0.419 |
| RRIRYRPPRLPRPRPRPRERPRP | 0.126 |
| RRIRYRPPRLPRPRPRPRGRPRP | 0.142 |
| RRIRYRPPRLPRPRPRPRHPPRP | -0.266 |
| RRIRYRPPRLPRPRPRPRHTPRP | -0.108 |
| RRIRYRPPRLPRPRPRPRKCPRP | -0.247 |
| RRIRYRPPRLPRPRPRPRKNPRP | -0.268 |
| RRIRYRPPRLPRPRPRPRKSPRP | 0.117 |
| RRIRYRPPRLPRPRPRPRLQPRP | 0.196 |
| RRIRYRPPRLPRPRPRPRMDPRP | -0.0437 |
| RRIRYRPPRLPRPRPRPRMYPRP | -0.627 |
| RRIRYRPPRLPRPRPRPRNLPRP | -0.036 |
| RRIRYRPPRLPRPRPRPRNWPRP | -0.0364 |
| RRIRYRPPRLPRPRPRPRQMPRP | -0.0779 |
| RRIRYRPPRLPRPRPRPRRDPRP | -0.17 |
| RRIRYRPPRLPRPRPRPRRMPRP | -0.0427 |
| RRIRYRPPRLPRPRPRPRRSPRP | -0.0446 |
| RRIRYRPPRLPRPRPRPRTVPRP | -0.0278 |
| RRIRYRPPRLPRPRPRPRVIPRP | -0.0396 |
| RRIRYRPPRLPRPRPRPRVKPRP | 0.0364 |

From the supplement of paper PMC9112550, “Optimization of the antimicrobial peptide Bac7 by deep mutational scanning” (BMC Biology, 2022)
